Assay results taken from the RNAGym collection of RNA variant scans (doi:10.1073/pnas.2313332121).
Variants at the floor of the assay were thinned out.

B1: TPR 5TU (parent)
chain: GGAUCUUCUCGAUCUAACAAAAAAGACAAAUCUGCCACAAAGCUUGAGAGCAUCUUCGGAUGCAGAGGCGGCAGCCUUCGGUGGCGCGAUAGCGCCAACGUUCUCAACUAUGACACGCAAAACGCGUGCUCCGUUGAAUGGAGUUUAUCAUG

Variants of: B1
Experiment: polymerase ribozyme fitness, log enrichment relative to wild type (log ratio); higher = more active; in vitro selection for triplet polymerase activity
In short: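 Frozen incubation at −7 °C formed the core of a single, triplicate in vitro selection round applied to PCR-built, transcribed mutant libraries of each subunit of a heterodimeric triplet polymerase ribozyme. Extended constructs were gel-excised, captured with streptavidin beads and amplified by RT-PCR, and input and output libraries were Illumina-sequenced with a filter of ≥10 input reads and ≥1 read per output. Fitness is the logarithm of genotype enrichment relative to wild-type enrichment, with inverse-variance-weighted replicate averaging, and the logarithm is base 2.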

Variant | polymerase ribozyme fitness (log ratio)
GGAUCUUCUCGAUCUAACAAAAAAGACAAAUCUGCCACAAAGCUUGAGAGCAUGUUCGAAUGCAGAGGCGGCAGCAUUCGGUGGGGCGAUAGCGCCAACGUUCUCAACUAUGACACGCAACAAGCGGGCUCCGUUGAAUCGAUUUUAUCCUG [C54G G59A C76A C85G A121C C123A U127G G140C G143U A150C] | ≤ -4.2
GGAUCUUCUCGAUCUAACAAAAAAGACAAAUCUGCCACAAAGCUUGAGAGCAUGUUCGGAUGCAGAGGCGGCAGCAUUCGGUGGGGCGAUAGCGCCAACGUUCUCAACUAUGACACGCAAAACGCGUGCUCCGUUGAAUGGAGUUUAUCAUG [C54G C76A C85G] | -2.78
GGAUCUUCUCGAUCUAACAAAAAAGACAAAUCUGCCACAAAGCUUGAGAGCAUGUUCGGAUGCAGAGGCGGCAGCCUUCGGUGGCUCGAUAGCGCCAACGUUCUCAACUAUGACACGCAAAACGCGUGCUCCGUUGAAUGGAGUUUAUCAUG [C54G G86U] | -3.24
GGAUCUUCUCGAUCUAACAAAAAAGACAAAUCUGCCACAAAGCUUGAGAGCAUGUUCGGAUGCAGAGGCGGCAGCCUUCGGUGGCGCGUUAGCGCCAACGUUCUCAACUAUGACACGCAAAACGCGUGCUCCGUUGAAUGGAGUUUCUCAUG [C54G A89U A147C] | -2.1
GGAUCUUCUCGAUCUAACAAAAAAGACAAAUCUGCCACAAAGCUUGAGAGCAUGUUCGGAUGCAGAGGCGGCAGCCUUCGGUGGCGCGAUAGCGCCAACGUUCUCAACUAUGACACGCAAAACGCGUGCUCCGUUGAAUUGAGUUUAUCAUG [C54G G140U] | -3.63
GGAUCUUCUCGAUCUAACAAAAAAGACAAAUCUGCCACAAAGCUUGAGAGCAUGUUCGGAUGCAGAGGCGGCGGCCUUAGGGGGCGUGAUAGCGCCAACGUUCUCAACUAUGACACGCAAAUCGCGUGCUCCGUUGAAUGCAGUUUAUCAUG [C54G A73G C79A U82G C87U A122U G141C] | ≤ -4.2
GGAUCUUCUCGAUCUAACAAAAAAGACAAAUCUGCCACAAAGCUUGAGAGCAUGUUCGGAUGGAGAGGCGGCAGCCUUCGGUGGCGCGAUAGUGCCAACGUUCUCAACUAUGACUCGCAAAACGCGUGCUCCGUUGAAUGGAGUUUAUGAUG [C54G C63G C93U A115U C149G] | ≤ -4.2
GGAUCUUCUCGAUCUAACAAAAAAGACAAAUCUGCCACAAAGCUUGAGAGCAUGUUCGGAUGCAGAGGCGGCAGCAUUCGGUGGCGCGAUAGGGCCAACGUUCUCAACUAUGACACGCAAAAUGCGUGCUCCGUUGAAUGGAGUUUAUCAUG [C54G C76A C93G C123U] | ≤ -4.2
GGAUCUUCUCGAUCUAACAAAAAAGACAAAUCUGCCACAAAGCUUGAGAGCAUGUUCGGAUGCAGAGGCGGCAGUCUUCGGUGGCGCGAUAGCACCAACGUUCUCAACUAUGACACGCAAAACGCGUGCUCCGUUGAAUGGAGUUUAUCAUG [C54G C75U G94A] | -1.51
GGAUCUUCUCGAUCUAACAAAAAAGACAAAUCUGCCACAAAGCUUGAGAGCAUGUUCGGAUGCAGAGUCGGCAGCCUUCGGUGGCGAGAUAGCGCCAACGUUCGCAACUAUGACACGCAAAACGCGUGCUCCGUUGAAUGGAGUUUAUCAUG [C54G G68U C87A U104G] | ≤ -4.2
GGAUCUUCUCGAUCUAACAAAAAAGACAAAUCUGCCACAAAGCUUGAGAGCAUGUUCGGAUGCAGAGGCGGCAGCCUUCGGUAGCGCGAUAGCGCUAACGUUCUCAACUGUGACACGCAAAACGCGUGCUCUGUUGAAUGGCGUUUAUCAUG [C54G G83A C96U A110G C132U A142C] | ≤ -4.2
GGAUCUUCUCGAUCUAACAAAAAAGACAAAUCUGCCACAAAGCUUGAGAGCAUGAUCUGAUGCAGAGGCGGCAGCCUUCGGUGGCGCGAUAGCGCCAACGUUCUCAACUAUGACACGCAAAACGCGUGCUCCGUUGAAUGGAGUUUAUCAUG [C54G U55A G58U] | 0.0801
GGAUCUUCUCGAUCUAACAAAAAAGACAAAUCUGCCACAAAGCUUGAGAGCAUGUUCGGAUGCAGAGGCGGCAGCCUUCGGUGGAGCGAUACCGCCAACGUUCUCAACUAUGACACGCAAAACGCGUGCUCCUUUGAAUGGAGUUGAUCAUG [C54G C85A G92C G133U U146G] | ≤ -4.2
GGAUCUUCUCGAUCUAACAAAAAAGACAAAUCUGCCACAAAGCUUGAGAGCAUGUUCGGAUGCAGAGGCGGCAGCCUUCGGUGGCGCGAUAGCACCAACGUUCUCAACUAUGACACGCAAAACGCGUGCUCCGUUGAAUGGAGUUUAUCAUG [C54G G94A] | -1.68
GGAUCUUCUCGAUCUAACAAAAAAGACAAAUCUGCCACAAAGCUUGAGAGCAUGUUCGGAUGCAGAGGCGGCAGUCUUCGGUGGCGCGAUAGCGCCAACGUUCUCAACUAUGACACGCAAAACGCGUGCUCCGUUGAAUGGAGUUUAUCAUG [C54G C75U] | -1.86
GGAUCUUCUCGAUCUAACAAAAAAGACAAAUCUGCCACAAAGCUUGAGAGCAUGUUCGGAUGCAGAGGCGGCAGACUUCGGUGGCGCGAUAGCGCCAACGUUCUCAACUAUGACACGCAAAACGCGUGCUCCGUUGAAUGGAGUUUAUCAUG [C54G C75A] | ≤ -4.2
GGAUCUUCUCGAUCUAACAAAAAAGACAAAUCUGCCACAAAGCUUGAGAGCAUGUUCGGAUGCAGAGGCGGCAGGCUUCGGUGGCGAGAUAGCGCCAACGUUCUCAACUAUGACACGCAAAACGCGUGCUCCGUUGAAUGGAGUUUAUCAUG [C54G C75G C87A] | ≤ -4.2
GGAUCUUCUCGAUCUAACAAAAAAGACAAAUCUGCCACAAAGCUUGAGAGCAUGUUCGGAUGCAGAGGCGGCAGCCUUCGGUGGCGCGAUAGCGACAACGUUCUCAACUAUGACACGGAAAACGCGUGCUCCGUUGAAUGGAGUUUAUCAUG [C54G C95A C118G] | -2.03
GGAUCUUCUCGAUCUAACAAAAAAGACAAAUCUGCCACAAAGCUUGAGAGCAUAUUCGGAUGCAGAGGCGGCAGCCUUCGGUGGCGCGAUAGCGCCAACGUUCUCAACUAUGACACGCAAAACGCGUGCUCCGUUGAAUGGAGAUUAUCAUG [C54A U144A] | -1.74

Variant | polymerase ribozyme fitness (log ratio)
GGAUCUUCUCGAUCUAACAAAAAAGACAAAUCUGCCACAAAGCUUGAGAGCAUGUUCGGAUGCAGAGGCGGCAGGCUUCGGUGGCUCGAUACCGCCAACGUUCUCAACUAUGACACGCAAAACUAGUGCUCCGUUGCAUGGAGUUUAUCACG [C54G C75G G86U G92C G124U C125A A137C U151C] | ≤ -4.2
GGAUCUUCUCGAUCUAACAAAAAAGACAAAUCUGCCACAAAGCUUGAGAGCAUGUUCGGAUGCAGAGGCGGCAGCCUUCGGUGGCGCGAUAGCGGCAACGUUCUCAUGUAUGACACGCAAAACGCGUGCUCCGUUGAAUGGAAUCUAUCAUG [C54G C95G A107U C108G G143A U145C] | ≤ -4.2
GGAUCUUCUCGAUCUAACAAAAAAGACAAAUCUGCCACAAAGCUUGAGAGCAUGUUCGCAUGCAGAGGCGGCAGCCUUCGGUUGCGUGAUAGCACCAACGUCCUCAACUAUGACACGCAAAACGCGUGCUCCGUUGAAUGGAGUUUAGCAUG [C54G G59C G83U C87U G94A U102C U148G] | ≤ -4.2
GGAUCUUCUCGAUCUAACAAAAAAGACAAAUCUGCCACAAAGCUUGAGAGCAUGUUCGGAUGCAGAGGCGGCAGCCUUCGGUGGCGCGCUAGCGCCAACGUUCUCAACUAUGACACGCAAAAGGCGUGCUACGUUGAAUGGAGUUUAUCAUG [C54G A89C C123G C131A] | ≤ -4.2
GGAUCUUCUCGAUCUAACAAAAAAGACAAAUCUGCCACAAAGCUUGAGAGCAUGUUCGGAUGCAGAGGCGGCAGCCUUCGGUGGCGCGAUAACGCCAACGUUCUCAACUAUGACACGCAAAACGCGUGCUCAGUUGAAUGGAGUUUAUCAUG [C54G G92A C132A] | ≤ -4.2
GGAUCUUCUCGAUCUAACAAAAAAGACAAAUCUGCCACAAAGCUUGAGAGCAUGAUCAGAUGCAGAGGCGGCAGCCUUCGGUGGCGCGAUAGCGCCAAGGUUCUCAACUAUGACACGCAAAACGCGUGCUCAGUUGAAUGGAGUUUAUCAUG [C54G U55A G58A C99G C132A] | ≤ -4.2
GGAUCUUCUCGAUCUAACAAAAAAGACAAAUCUGCCACAAAGCUUGAGAGCAUGUUCGGAUGCAGAGGCGGCAGCCUUCGGUGGCGCGAUAGCGCCAACGUUCUCAACUAUGACACGCAAAACGCGUGCUCCGUUGAAUGGAGUUUCUCAUG [C54G A147C] | -1.47
GGAUCUUCUCGAUCUAACAAAAAAGACAAAUCUGCCACAAAGCUUGAGAGCAUGUUCGGGUGCAGAGGCGGCAGCCUUCGGUGGCGCGAUAGCGGCAACGUUCUCAACUAUGACACGCAAAACGCGUGCUCCGUUGAAUGGAGUUUAUCAUG [C54G A60G C95G] | -2.44
GGAUCUUCUCGAUCUAACAAAAAAGACAAAUCUGCCACAAAGCUUGAGAGCAUGUUCGGAUGCAGAGGCGGCAGCUCUCGGUGGCGAGAUAGCGCCAACGUUCUCAACUAUGACACGCAAAACGCUUGCUCCGUUGAAUGGAGUUUAUCAUG [C54G C76U U77C C87A G126U] | ≤ -4.2
GGAUCUUCUCGAUCUAACAAAAAAGACAAAUCUGCCACAAAGCUUGAGAGCAUGUUCGGAUGCAGAGGCGGCAGCCUUCGGUGGCGCGAUAGCGCCAACGUUCUCAAUUAUGACACGCAAAACGCGUGCUCCGUUGAAUGGAGUUUAUCAUG [C54G C108U] | -4.19
GGAUCUUCUCGAUCUAACAAAAAAGACAAAUCUGCCACAAAGCUUGAGAGCAUGUUCGGAUGCAGAGGCGGCAGCCUUCGGUGGCGCGAUAGCGCCAAGGUUCUCAACUAUGACACGCAAAACGCGUGCUCCGUUUAAUGGAGUUUAUCAUG [C54G C99G G136U] | -3.14
GGAUCUUCUCGAUCUAACAAAAAAGACAAAUCUGCCACAAAGCUUGAGAGCAUGUUCGGAUGCAGAGGCGGCAGCCUUCGGUGGCGCGAUAGCGCCGACGUUCUCAACUAUGACACGCAAAACGCGUGCUCCGUUGAAUGGAGUUUAUCAUG [C54G A97G] | -0.818
GGAUCUUCUCGAUCUAACAAAAAAGACAAAUCUGCCACAAAGCUUGAGAGCAUGUUCGGAUGCAGAGGCGGCAGCCUUCGGUUGCGCGAUAGCGCCAACGUUCUCAACUAUGACACGCAAAACGCGUGCUCCGUUGAAUGUAGUUUAUCAUG [C54G G83U G141U] | -1.56
GGAUCUUCUCGAUCUAACAAAAAAGACAAAUCUGCCACAAAGCUUGAGAGCAUGUUCGGAUGCAGAGGCGGCAGCCUUCGGUGGCGCGAUAGCGCCAACGUUCUCAACUAUGACACGCAAAACGCGUGCUCCCUUGAAUGGAGUUUAUCAUG [C54G G133C] | -2.55
GGAUCUUCUCGAUCUAACAAAAAAGACAAAUCUGCCACAAAGCUUGAGAGCAUGUUCGGAUGCAGAGGCGGCAGCCUUCGGUGACGCGAUAGCGCCAACGUUCUCAACUAUGACACGCAAAACGCGUGCUCCGUUGAAUGGAGUUUAUCAUG [C54G G84A] | -1.74
GGAUCUUCUCGAUCUAACAAAAAAGACAAAUCUGCCACAAAGCUUGAGAGCAUGUUCGGAUGCAGAGGCGGCAGCCUUCGGUGGCGCGAUAGCGGCAACGUUCUCAACUAUGACACGCAAAACGCGUGCUCCGUUGAAUGGAGUUUAUCAUG [C54G C95G] | -2.56
GGAUCUUCUCGAUCUAACAAAAAAGACAAAUCUGCCACAAAGCUUGAGAGCAUGUUCGGAUGCAGAGGCGGCAGCCUUCGGUGGCGCGUUAGCGUCCACGUUCUCAACUAUGACACGCAAAACGCGUGCUCCGUUGAAUGGAGUUUAUCAUG [C54G A89U C95U A97C] | -2.48
GGAUCUUCUCGAUCUAACAAAAAAGACAAAUCUGCCACAAAGCUUGAGAGCAUGUUCGGAUGCAGAGGCGGCAGCCUUCGGUGGCGCGAUAGCGCCCACGUUCUCAACUAUGACACGCAAAACACGUGCUCCGUUGAAUGGAGUUUAUCAUG [C54G A97C G124A] | -0.735
GGAUCUUCUCGAUCUAACAAAAAAGACAAAUCUGCCACAAAGCUUGAGAGCAUGUUCGGAUGCAGAGGCGGCAGCCUUCGGUGGCGCGAUAGAGCCAACGUUCUCAACUAUGACACGCAAAACGCGUGCUCCGUUGAAUGGAGUUUAUCAUG [C54G C93A] | -4.19
